Measured values reported in the supplement of paper PMC9112550, “Optimization of the antimicrobial peptide Bac7 by deep mutational scanning” (BMC Biology, 2022).

These sequences were tested on Escherichia coli TOP10 (assay: shrunken log2 fold change of peptide-encoding DNA abundance (4.5 h post-induction vs induction); higher = less antimicrobial activity (less host growth inhibition)). Details: time post-induction: 4.5 h; library: site-saturation at positions 5, 18, 19, 20.
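Further: peptides expressed intracellularly from a pBAD plasmid library in pooled LB shake-flask culture, induced with 0.3% L-arabinose, DNA abundance read by NGS, three biological replicates, DESeq2 with apeglm shrinkage.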

| Sequence | shrunken log2 fold change |
| --- | --- |
| RRIRCRPPRLPRPRPRPTVFPRP | 0.197 |
| RRIRHRPPRLPRPRPRPEQGPRP | 0.0631 |
| RRIRHRPPRLPRPRPRPYCFPRP | -0.792 |
| RRIRCRPPRLPRPRPRPEAYPRP | -0.0117 |
| RRIRQRPPRLPRPRPRPKKEPRP | 0.00476 |
| RRIRQRPPRLPRPRPRPMALPRP | 0.00414 |
| RRIRNRPPRLPRPRPRPFGQPRP | -0.282 |
| RRIRHRPPRLPRPRPRPRTNPRP | 0.0589 |
| RRIRKRPPRLPRPRPRPIREPRP | 0.057 |
| RRIRKRPPRLPRPRPRPLKVPRP | 0.237 |
| RRIRHRPPRLPRPRPRPWMTPRP | -0.225 |
| RRIRCRPPRLPRPRPRPAFKPRP | 0.132 |
| RRIRIRPPRLPRPRPRPAAWPRP | 0.112 |
| RRIRLRPPRLPRPRPRPQWHPRP | -0.193 |
| RRIRIRPPRLPRPRPRPGKLPRP | -0.0215 |
| RRIRSRPPRLPRPRPRPKDCPRP | 0.456 |
| RRIRCRPPRLPRPRPRPLASPRP | 0.139 |
| RRIRWRPPRLPRPRPRPLDAPRP | 0.354 |
| RRIRPRPPRLPRPRPRPEPEPRP | 0.433 |
| RRIRLRPPRLPRPRPRPVSFPRP | 0.0353 |
| RRIRCRPPRLPRPRPRPVAHPRP | -0.277 |
| RRIRSRPPRLPRPRPRPAPDPRP | 0.369 |
| RRIRSRPPRLPRPRPRPWHYPRP | -0.162 |
| RRIRHRPPRLPRPRPRPWWRPRP | 0.219 |
| RRIRWRPPRLPRPRPRPKVGPRP | 0.0351 |

| Sequence | shrunken log2 fold change |
| --- | --- |
| RRIRNRPPRLPRPRPRPRNWPRP | -0.149 |
| RRIRARPPRLPRPRPRPHMKPRP | -0.188 |
| RRIRPRPPRLPRPRPRPKLVPRP | 0.0371 |
| RRIRKRPPRLPRPRPRPTRSPRP | 0.831 |
| RRIRARPPRLPRPRPRPELCPRP | 0.92 |
| RRIRPRPPRLPRPRPRPNLDPRP | 0.109 |
| RRIRIRPPRLPRPRPRPQIEPRP | -0.0116 |
| RRIRDRPPRLPRPRPRPEIFPRP | -0.0297 |
| RRIRARPPRLPRPRPRPLAFPRP | 0.703 |
| RRIRTRPPRLPRPRPRPQNGPRP | -0.456 |
| RRIRLRPPRLPRPRPRPPVVPRP | 0.218 |
| RRIRQRPPRLPRPRPRPDSRPRP | -0.0119 |
| RRIRMRPPRLPRPRPRPDWWPRP | 0.218 |
| RRIRMRPPRLPRPRPRPQPHPRP | 0.46 |
| RRIRKRPPRLPRPRPRPKEPPRP | 0.074 |
| RRIRLRPPRLPRPRPRPGAYPRP | -0.16 |
| RRIRLRPPRLPRPRPRPKESPRP | 0.0595 |
| RRIRQRPPRLPRPRPRPCGGPRP | 0.257 |
| RRIRQRPPRLPRPRPRPGANPRP | 0.17 |
| RRIRSRPPRLPRPRPRPCTVPRP | -0.253 |
| RRIRVRPPRLPRPRPRPELVPRP | 0.14 |
| RRIRNRPPRLPRPRPRPPVWPRP | 0.476 |
| RRIRQRPPRLPRPRPRPNVLPRP | -0.0544 |
| RRIRLRPPRLPRPRPRPPDSPRP | 0.0353 |
| RRIRIRPPRLPRPRPRPSQCPRP | -0.0584 |

| Sequence | shrunken log2 fold change |
| --- | --- |
| RRIRPRPPRLPRPRPRPNCEPRP | 0.117 |
| RRIRYRPPRLPRPRPRPAIKPRP | -0.411 |
| RRIRNRPPRLPRPRPRPATEPRP | 0.00868 |
| RRIRVRPPRLPRPRPRPTFLPRP | -0.0973 |
| RRIRTRPPRLPRPRPRPTYSPRP | -1.56 |
| RRIRVRPPRLPRPRPRPYLRPRP | -0.165 |
| RRIRARPPRLPRPRPRPRKDPRP | 0.173 |
| RRIRVRPPRLPRPRPRPQGYPRP | 0.0811 |
| RRIRCRPPRLPRPRPRPFQMPRP | -0.423 |
| RRIRKRPPRLPRPRPRPLDYPRP | -0.202 |
| RRIRTRPPRLPRPRPRPLSMPRP | -0.238 |
| RRIRCRPPRLPRPRPRPRKHPRP | 0.0674 |
| RRIRQRPPRLPRPRPRPMCMPRP | 0.0416 |
| RRIRDRPPRLPRPRPRPLAAPRP | 0.913 |
| RRIRKRPPRLPRPRPRPTKSPRP | 2.1 |
| RRIRSRPPRLPRPRPRPMQAPRP | 0.0325 |
| RRIRVRPPRLPRPRPRPDTYPRP | -0.995 |
| RRIRCRPPRLPRPRPRPVFNPRP | -0.204 |
| RRIRQRPPRLPRPRPRPRYIPRP | -0.706 |
| RRIRYRPPRLPRPRPRPMTTPRP | -0.2 |
| RRIRRRPPRLPRPRPRPIETPRP | -0.00874 |
| RRIRVRPPRLPRPRPRPWHEPRP | -0.127 |
| RRIRGRPPRLPRPRPRPPLEPRP | 1.2 |
| RRIRIRPPRLPRPRPRPQFWPRP | 0.133 |
| RRIRWRPPRLPRPRPRPHWDPRP | -0.0409 |

| Sequence | shrunken log2 fold change |
| --- | --- |
| RRIRTRPPRLPRPRPRPDVNPRP | 0.21 |
| RRIRERPPRLPRPRPRPDMEPRP | -0.201 |
| RRIRFRPPRLPRPRPRPAHSPRP | -0.156 |
| RRIRVRPPRLPRPRPRPMHAPRP | -0.00559 |
| RRIRGRPPRLPRPRPRPGICPRP | 0.808 |
| RRIRCRPPRLPRPRPRPHAEPRP | 0.315 |
| RRIRFRPPRLPRPRPRPMHWPRP | 0.325 |
| RRIRLRPPRLPRPRPRPYAFPRP | 0.0808 |
| RRIRLRPPRLPRPRPRPSISPRP | -0.655 |
| RRIRIRPPRLPRPRPRPGKMPRP | -0.329 |
| RRIRCRPPRLPRPRPRPKCRPRP | -0.281 |
| RRIRFRPPRLPRPRPRPDVSPRP | 0.0432 |
| RRIRGRPPRLPRPRPRPMVRPRP | 0.03 |
| RRIRGRPPRLPRPRPRPPHCPRP | 0.902 |
| RRIRRRPPRLPRPRPRPFCFPRP | 0.218 |
| RRIRLRPPRLPRPRPRPGMEPRP | 0.251 |
| RRIRLRPPRLPRPRPRPCDIPRP | -0.0237 |
| RRIRDRPPRLPRPRPRPKYLPRP | -0.131 |
| RRIRKRPPRLPRPRPRPARLPRP | 0.434 |
| RRIRERPPRLPRPRPRPKINPRP | -0.488 |
| RRIRNRPPRLPRPRPRPQVVPRP | 0.0145 |
| RRIRPRPPRLPRPRPRPARAPRP | 0.438 |
| RRIRRRPPRLPRPRPRPHDLPRP | 0.22 |
| RRIRPRPPRLPRPRPRPGLVPRP | 0.287 |
| RRIRARPPRLPRPRPRPSRYPRP | 0.0768 |

| Sequence | shrunken log2 fold change |
| --- | --- |
| RRIRPRPPRLPRPRPRPEQKPRP | 0.000209 |
| RRIRQRPPRLPRPRPRPMPFPRP | -0.0697 |
| RRIRYRPPRLPRPRPRPTCPPRP | -0.434 |
| RRIRPRPPRLPRPRPRPNVYPRP | -0.177 |
| RRIRMRPPRLPRPRPRPMNGPRP | 0.0715 |
| RRIRPRPPRLPRPRPRPLSLPRP | 0.0584 |
| RRIRSRPPRLPRPRPRPKCLPRP | 0.0157 |
| RRIRGRPPRLPRPRPRPEPQPRP | 1.41 |
| RRIRNRPPRLPRPRPRPMPQPRP | -0.0321 |
| RRIRMRPPRLPRPRPRPTFHPRP | -0.00995 |
| RRIRLRPPRLPRPRPRPCKWPRP | 0.117 |
| RRIRNRPPRLPRPRPRPEPMPRP | 0.132 |
| RRIRTRPPRLPRPRPRPMRPPRP | 0.93 |
| RRIRKRPPRLPRPRPRPMFPPRP | -0.187 |
| RRIRGRPPRLPRPRPRPSDHPRP | 0.0544 |
| RRIRDRPPRLPRPRPRPFRWPRP | 0.317 |
| RRIRARPPRLPRPRPRPTRWPRP | 0.539 |
| RRIRGRPPRLPRPRPRPGIYPRP | 0.641 |
| RRIRARPPRLPRPRPRPLEMPRP | 0.75 |
| RRIRDRPPRLPRPRPRPWNSPRP | -0.237 |
| RRIRYRPPRLPRPRPRPPPTPRP | 0.867 |
| RRIRGRPPRLPRPRPRPPSKPRP | 0.58 |
| RRIRPRPPRLPRPRPRPIRCPRP | 0.125 |
| RRIRRRPPRLPRPRPRPCNQPRP | -0.0711 |
| RRIRDRPPRLPRPRPRPMFMPRP | 0.169 |

| Sequence | shrunken log2 fold change |
| --- | --- |
| RRIRERPPRLPRPRPRPMDEPRP | -0.153 |
| RRIRNRPPRLPRPRPRPVRTPRP | 0.296 |
| RRIRQRPPRLPRPRPRPMAVPRP | 0.00724 |
| RRIRQRPPRLPRPRPRPYAYPRP | -0.0214 |
| RRIRQRPPRLPRPRPRPEPMPRP | 0.0452 |
| RRIRERPPRLPRPRPRPHVTPRP | -0.228 |
| RRIRHRPPRLPRPRPRPLSQPRP | -0.0443 |
| RRIRTRPPRLPRPRPRPCVYPRP | -0.243 |
| RRIRSRPPRLPRPRPRPGGFPRP | 0.245 |
| RRIRTRPPRLPRPRPRPCDKPRP | -0.138 |
| RRIRCRPPRLPRPRPRPGRTPRP | -0.106 |
| RRIRSRPPRLPRPRPRPFIRPRP | -0.412 |
| RRIRPRPPRLPRPRPRPTFCPRP | 0.0727 |
| RRIRHRPPRLPRPRPRPNTYPRP | -0.742 |
| RRIRTRPPRLPRPRPRPTTLPRP | -0.316 |
| RRIRCRPPRLPRPRPRPFIVPRP | -0.575 |
| RRIRPRPPRLPRPRPRPMHCPRP | -0.0698 |
| RRIRPRPPRLPRPRPRPGAAPRP | 0.552 |
| RRIRQRPPRLPRPRPRPFRVPRP | -0.153 |
| RRIRSRPPRLPRPRPRPILYPRP | -0.481 |
| RRIRDRPPRLPRPRPRPGIRPRP | -0.174 |
| RRIRKRPPRLPRPRPRPHWLPRP | 0.148 |
| RRIRNRPPRLPRPRPRPMMKPRP | 2.77 |
| RRIRIRPPRLPRPRPRPDKQPRP | 0.0185 |
| RRIRLRPPRLPRPRPRPMASPRP | 0.0148 |
